Measured values reported in article PMC3206816.
Values joined by “and” are separate entries in the source; they are usually repeats but may differ in a detail not shown here. Identical values can stand only once.

Key:
[1] = molecular target: full-length HIV-1 Nef (RP14) (HIV-1); assay: cross-linking; purified Nef with glutaraldehyde (0.0%, 0.025%, 0.05%, 0.075%, 0.1%) on ice for 15 minutes; 12% SDS-PAGE, silver stain and western blot with anti-His antibody
[2] = molecular target: full-length HIV-1 Nef (RP14) (HIV-1); assay: crystal structure; hanging drop, Nef at ~3.7 mg/ml; 0.1 M Tris pH 8.5, 0.2 M ammonium sulfate, 20% PEG 8000; space group P6(3)22, two chains in the asymmetric unit, tetramer with 4-fold symmetry formed through crystal symmetry; 3.5 Å

In the case of “full-length HIV-1 Nef (RP14) (natural protein)”, the stoichiometry N [1] was 2 and 4 and the stoichiometry N [2] was 4.
